Measured values as given in patent publication US20060193821, “Aptamers to the human IL-12 cytokine family and their use as autoimmune disease therapeutics” (published 2006).

B1: ARC1621 (mixed)
RNA: ACAGGCAAGUAAUUGGGGAGUGCGGGCGGGGUGU
modifications: 2'-OMe C,U and G16,G17,G24,G25,G30,G31; other A,G deoxy; PS 3-4,4-5; 3'-idT [PS 3-4,4-5; 2'-OMe at 2,6,10,13,14,16,17,21,23,24,25,27,30,31,32,34; other A,G deoxy; 3'-inverted dT at 35]
B2: ARC1464 (mixed)
RNA: B1 RNA
modifications: deoxy A,G; 2'-OMe C,U; PS 31-32; 3'-idT [2'-OMe C,U at 2,6,10,13,14,21,23,27,32,34; deoxy A,G elsewhere; PS 31-32 (N = PS linkage, left out); 3'-inverted dT at 35]
B3: ARC1457 (mixed)
RNA: B1 RNA
modifications: deoxy A,G; 2'-OMe C,U; PS 16-17; 3'-idT [PS linkage 16-17; 2'-OMe C,U at 2,6,10,13,14,21,23,27,32,34; all A,G 2'-deoxy; 3'-inverted dT at 35]
B4: ARC1458 (mixed)
RNA: B1 RNA
modifications: deoxy A,G; 2'-OMe C,U; PS 17-18; 3'-idT [PS linkage 17-18; 2'-OMe C,U at 2,6,10,13,14,21,23,27,32,34; all A,G 2'-deoxy; 3'-inverted dT at 35]
B5: ARC1461 (mixed)
RNA: B1 RNA
modifications: deoxy A,G; 2'-OMe C,U; PS 25-26; 3'-idT [PS linkage 25-26; 2'-OMe C,U at 2,6,10,13,14,21,23,27,32,34; all A,G 2'-deoxy; 3'-inverted dT at 35]
B6: ARC1463 (mixed)
RNA: B1 RNA
modifications: deoxy A,G; 2'-OMe C,U; PS 30-31; 3'-idT [2'-OMe C,U at 2,6,10,13,14,21,23,27,32,34; deoxy A,G elsewhere; PS 30-31 (N = PS linkage, left out); 3'-inverted dT at 35]
B7: ARC1454 (mixed)
RNA: B1 RNA
modifications: deoxy A,G; 2'-OMe C,U; PS 4-5; 3'-idT [PS linkage 4-5; 2'-OMe C,U at 2,6,10,13,14,21,23,27,32,34; all A,G 2'-deoxy; 3'-inverted dT at 35]
B8: ARC1456 (mixed)
RNA: B1 RNA
modifications: deoxy A,G; 2'-OMe C,U; PS 15-16; 3'-idT [PS linkage 15-16; 2'-OMe C,U at 2,6,10,13,14,21,23,27,32,34; all A,G 2'-deoxy; 3'-inverted dT at 35]
B9: ARC1459 (mixed)
RNA: B1 RNA
modifications: deoxy A,G; 2'-OMe C,U; PS 23-24; 3'-idT [PS linkage 23-24; 2'-OMe C,U at 2,6,10,13,14,21,23,27,32,34; all A,G 2'-deoxy; 3'-inverted dT at 35]

Target: IL-23 (human, p19/p40 heterodimer) (Homo sapiens, UniProt Q9NPF7;P29460 SEQ:20-189,SEQ:23-328)
Test: filter; DPBS Ca Mg
Conditions: tags: R&D Systems, carrier free
Description: The dot blot binding assay previously described was used to characterize the relative potency of the majority of the aptamers synthesized. For KD determination, chemically synthesized aptamers were purified using denaturing polyacrylamide gel electrophoresis, 5′end labeled with γ-³²P ATP and were tested for direct binding to full human IL-23. An 8 point protein titration was used in the dot blot binding assay (either {100 nM, 30 nM, 10 nM, 3 nM, 1 nM, 300 pM, 100 pM, 0 pM} or {10 nM, 3 nM, 1 nM, 300 pM, 100 pM, 30 pM, 10 pM, 0 pM}) in Dulbecco's PBS (with Mg⁺⁺ and Ca⁺⁺) with 0.1 mg/mL BSA. KD values were calculated by fitting the equation y=(max/(1+K/protein))+yint using KaleidaGraph (KaleidaGraph v. 3.51, Synergy Software). Sequences of the ARC979 derivatives synthesized, purified and assayed for binding to IL-23 as well as the results of the protein binding characterization are tabulated below in Tables 29 and 30.

Chain of IL-23 (human, p19/p40 heterodimer) (Q9NPF7 20-189, chain 1 of 2): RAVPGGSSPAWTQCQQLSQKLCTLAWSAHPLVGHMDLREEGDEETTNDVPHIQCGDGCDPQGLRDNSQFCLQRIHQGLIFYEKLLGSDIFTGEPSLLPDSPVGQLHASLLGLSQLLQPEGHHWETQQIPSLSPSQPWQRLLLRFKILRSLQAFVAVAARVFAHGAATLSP
Chain of IL-23 (human, p19/p40 heterodimer) (P29460 23-328, chain 2 of 2): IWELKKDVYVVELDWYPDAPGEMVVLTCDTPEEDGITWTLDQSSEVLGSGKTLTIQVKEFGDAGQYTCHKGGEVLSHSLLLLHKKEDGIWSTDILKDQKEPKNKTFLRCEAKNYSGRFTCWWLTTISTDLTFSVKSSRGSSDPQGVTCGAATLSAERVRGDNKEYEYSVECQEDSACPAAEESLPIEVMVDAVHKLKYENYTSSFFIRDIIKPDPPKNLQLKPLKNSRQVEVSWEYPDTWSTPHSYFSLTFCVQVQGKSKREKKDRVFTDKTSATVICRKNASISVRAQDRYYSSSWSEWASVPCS

Going from B1 to ACAGGCAAGUAAUUGGGGAGUGCGGGCGGGGUGU (mixed, 2'-OMe C,U and A1; other A,G deoxy; 3'-idT) [ARC1427], the Kd rises from 0.5 nM to 3 nM (6-fold).

ACAGGCAAGUAAUUGGGGAGUGCGGGCGGGGUGU (mixed, 2'-OMe C,U and G24; other A,G deoxy; 3'-idT) [ARC1443] and ACAGGCAAGUAAUUGGGGAGUGCGGGCGGGGUGU (mixed, 2'-OMe C,U and G33; other A,G deoxy; 3'-idT) [ARC1450] are within 1.5-fold of each other in Kd: 2 nM for the first, 2.6 nM for the second.

B2 and B3 are within 1.5-fold of each other in Kd: 2.4 nM for the first, 3 nM for the second.

ACAGGCAAGUAAUUGGGGAGUGCGGGCGGGGUGU (mixed, 2'-OMe C,U and G22; other A,G deoxy; 3'-idT) [ARC1442] and ACAGGCAAGUAAUUGGGGAGUGCGGGCGGGGUGU (mixed, 2'-OMe C,U and G20; other A,G deoxy; 3'-idT) [ARC1441] are within 1.5-fold of each other in Kd: 2.8 nM for the first, 2.7 nM for the second.

Compared with ACAGGCAAGUAAUUGGGGAGUGCGGGCGGGGUGU (mixed, 2'-OMe C,U and G30; other A,G deoxy; 3'-idT) [ARC1448], ACAGGCAAGUAAUUGGGGAGUGCGGGCGGGGUGU (mixed, 2'-OMe C,U and A8; other A,G deoxy; 3'-idT) [ARC1432] is 1.7-fold higher in Kd: 2.3 nM for the first, 3.8 nM for the second.

ACAGGCAAGUAAUUGGGGAGUGCGGGCGGGGUGU (mixed, 2'-OMe C,U and G28; other A,G deoxy; 3'-idT) [ARC1446] and B4 are within 1.5-fold of each other in Kd: 2.1 nM for the first, 2.9 nM for the second.

B5 and ACAGGCAAGUAAUUGGGGAGUGCGGGCGGGGUGU (mixed, 2'-OMe C,U and G9; other A,G deoxy; 3'-idT) [ARC1433] are within 1.5-fold of each other in Kd: 3.7 nM for the first, 2.8 nM for the second.

Compared with ACAGGCAAGUAAUUGGGGAGUGCGGGCGGGGUGU (mixed, 2'-OMe C,U and G18,A19,G20,G22; other A,G deoxy; 3'-idT) [ARC1541], ACAGGCAAGUAAUUGGGGAGUGCGGGCGGGGUGU (mixed, 2'-OMe C,U and G29; other A,G deoxy; 3'-idT) [ARC1447] is 1.6-fold lower in Kd: 3.9 nM for the first, 2.5 nM for the second.

Compared with ACAGGCAAGUAAUUGGGGAGUGCGGGCGGGGUGU (mixed, 2'-OMe C,U and A3; other A,G deoxy; 3'-idT) [ARC1428], B6 is 2-fold higher in Kd: 1.8 nM for the first, 3.6 nM for the second. The first binds more tightly here.

Compared with ACAGGCAAGUAAUUGGGGAGUGCGGGCGGGGUGU (mixed, 2'-OMe C,U and G31; other A,G deoxy; 3'-idT) [ARC1449], ACAGGCAAGUAAUUGGGGAGUGCGGGCGGGGUGU (mixed, 2'-OMe C,U and G16; other A,G deoxy; 3'-idT) [ARC1437] is 1.5-fold higher in Kd: 2.6 nM for the first, 3.9 nM for the second.

ACAGGCAAGUAAUUGGGGAGUGCGGGCGGGGUGU (mixed, 2'-OMe C,U and G26; other A,G deoxy; 3'-idT) [ARC1445] and B7 are within 1.5-fold of each other in Kd: 2.8 nM for the first, 2.7 nM for the second.

B8 and ACAGGCAAGUAAUUGGGGAGUGCGGGCGGGGUGU (mixed, 2'-OMe C,U and A11; other A,G deoxy; 3'-idT) [ARC1434] are within 1.5-fold of each other in Kd: 3.2 nM for the first, 3 nM for the second.

B9 showed a Kd of 4 nM.
